Laboratory results taken from IntAct's records for PubMed 28325809.

B1: ADP-ribosylation factor-like protein 8B (Homo sapiens), Q9NVJ2 (parent)
chain: MLALISRLLDWFRSLFWKEEMELTLVGLQYSGKTTFVNVIASGQFSEDMIPTVGFNMRKVTKGNVTIKIWDIGGQPRFRSMWERYCRGVNAIVYMIDAADREKIEASRNELHNLLDKPQLQGIPVLVLGNKRDLPNALDEKQLIEKMNLSAIQDREICCYSISCKEKDNIDITLQWLIQHSKSRRS
B2: Pleckstrin homology domain-containing family M member 1 (Homo sapiens), Q9Y4G2 (parent)
chain: MLSVVENGLDPQAAIPVIKKKLVGSVKALQKQYVSLDTVVTSEDGDANTMCSALEAVFIHGLHAKHIRAEAGGKRKKSAHQKPLPQPVFWPLLKAVTHKHIISELEHLTFVNTDVGRCRAWLRLALNDGLMECYLKLLLQEQARLHEYYQPTALLRDAEEGEFLLSFLQGLTSLSFELSYKSAILNEWTLTPLALSGLCPLSELDPLSTSGAELQRKESLDSISHSSGSEDIEVHHSGHKIRRNQKLTASSLSLDTASSSQLSCSLNSDSCLLQENGSKSPDHCEEPMSCDSDLGTANAEDSDRSLQEVLLEFSKAQVNSVPTNGLSQETEIPTPQASLSLHGLNTSTYLHCEAPAEPLPAQAASGTQDGVHVQEPRPQAPSPLDLQQPVESTSGQQPSSTVSETAREVGQGNGLQKAQAHDGAGLKLVVSSPTSPKNKSWISEDDFYRPSREQPLESASDHPIASYRGTPGSRPGLHRHFSQEPRKNCSLGALDQACVPSPGRRQAQAAPSQGHKSFRVVHRRQMGLSNPFRGLMKLGTVERRGAMGIWKELFCELSPLEFRLYLSNEEHTCVENCSLLRCESVGPAHSDGRFELVFSGKKLALRASSQDEAEDWLDRVREALQKVRPQQEDEWVNVQYPDQPEEPPEAPQGCLSPSDLLSEPAALQGTQFDWSSAQVPEPDAIKESLLYLYMDRTWMPYIFSLSLEALKCFRIRNNEKMLSDSHGVETIRDILPDTSLGGPSFFKIITAKAVLKLQAGNAEEAALWRDLVRKVLASYLETAEEAVTLGGSLDENCQEVLKFATRENGFLLQYLVAIPMEKGLDSQGCFCAGCSRQIGFSFVRPKLCAFSGLYYCDICHQDDASVIPARIIHNWDLTKRPICRQALKFLTQIRAQPLINLQMVNASLYEHVERMHLIGRRREQLKLLGDYLGLCRSGALKELSKRLNHRNYLLESPHRFSVADLQQIADGVYEGFLKALIEFASQHVYHCDLCTQRGFICQICQHHDIIFPFEFDTTVRCAECKTVFHQSCQAVVKKGCPRCARRRKYQEQNIFA

Assays:
[1] = variants of: B1; conditions: with pkhm1_human PLEKHM1, Q9Y4G2
[2] = variants of: B2; conditions: with arl8b_human ARL8B
[3] = variants of: B2; conditions: with rab7a_human RAB7A
[4] = variants of: B2; conditions: with arl8b_human ARL8B; remark: listed apart in the source
[5] = variants of: B2; conditions: with mlp3b_human MAP1LC3B
[6] = variants of: B2; conditions: with mlp3b_rat Map1lc3b

| Variant | effect of a mutation on the interaction [1] | effect of a mutation on the interaction [2] | effect of a mutation on the interaction [3] | effect of a mutation on the interaction [4] | effect of a mutation on the interaction [5] | effect of a mutation on the interaction [6] |
| --- | --- | --- | --- | --- | --- | --- |
| T34N | disrupting interaction strength |  |  |  |  |  |
| MLALISRLLDWFRSLFWKEEMELTLVGLQYSGKTTFVNVIASGQFSEDMIPTVGFNMRKVTKGNVTIKIWDIGGLPRFRSMWERYCRGVNAIVYMIDAADREKIEASRNELHNLLDKPQLQGIPVLVLGNKRDLPNALDEKQLIEKMNLSAIQDREICCYSISCKEKDNIDITLQWLIQHSKSRRS [Q75L] | with no effect |  |  |  |  |  |
| R117A;R119A |  | disrupting interaction strength | with no effect | decreasing interaction strength |  |  |
| H60A;R117A;R119A |  | disrupting interaction strength | with no effect | decreasing interaction strength | disrupting interaction strength | disrupting interaction strength |
| R123A |  | disrupting interaction strength | with no effect |  |  |  |
| H63A |  | disrupting interaction strength | with no effect | with no effect |  |  |
| H60A |  | disrupting interaction strength | with no effect | decreasing interaction strength |  |  |
